Self-cleavage data for 32 variants are collected here from the RNAGym collection of RNA variant scans (doi:10.7554/elife.80360).

Sequences and labels used below:
B1: HDV Ribozyme (parent)
chain: GGCCGGCAUGGUCCCAGCCUCCUCGCUGGCGCCGGCUGGGCAACAUUCCGAGGGGACCGUCCCCUCGGUAAUGGCGAAUGGGACCCA

In this series the parent is B1. In words: self-cleavage, relative activity (ratio to wild type); higher = more cleavage; co-transcriptional.
For GGCCGGCAUGGUCCCAGCCUCCUCGCUGGCGCCGGCUGGGCAACAUUCCGAGGGGACGGUCCCCUCAGUAAUGGCGAAUGGGACCCA [C58G G67A], the self-cleavage worked out at 1.28.

Regarding GGCCGGCAUGGUCCCAGCCUCCUCGCUGGCGCCGGCUGGGCAACAUUCCGAGGGGACGGUCCCCUCGGUAAUGGGGAAUGGGACCCA [C58G C75G], the self-cleavage stood at 0.415.

Take GGCCGGCAUGGUCCCAGCCUCCUCGCUGGCGCCGGCUGGGCAACAUUCCGAGGGGACGGUCCCCUCGGUAAUUGCGAAUGGGACCCA [C58G G73U]: the self-cleavage was 0.217. Then GGCCGGCAUGGUCCCAGCCUCCUCGCUGGCGCCGGCUGGGCAACAUUCCGAGGGGACAGUCCCCUCGGUAAUGGCGAACGGGACCCA [C58A U79C], with 0.554; and GGCCGGCAUGGUCCCAGCCUCCUCGCUGGCGCCGGCUGGGCAACAUUCCGAGGGGACAGUCCCCUCGGUAAUGGCAAAUGGGACCCA [C58A G76A], with 1.02; and GGCCGGCAUGGUCCCAGCCUCCUCGCUGGCGCCGGCUGGGCAACAUUCCGAGGGGACGGUCCCCUCGGUAAUGGCGCAUGGGACCCA [C58G A77C], with 0.361. As to GGCCGGCAUGGUCCCAGCCUCCUCGCUGGCGCCGGCUGGGCAACAUUCCGAGGGGACGGUCCCCUCGGUAAUGGCGUAUGGGACCCA [C58G A77U], the self-cleavage stood at 0.388. As for GGCCGGCAUGGUCCCAGCCUCCUCGCUGGCGCCGGCUGGGCAACAUUCCGAGGGGACUGUCCCCUCGGUAAUGGCGAGUGGGACCCA [C58U A78G], the figure is 0.77. Then GGCCGGCAUGGUCCCAGCCUCCUCGCUGGCGCCGGCUGGGCAACAUUCCGAGGGGACAGUCCCCUCGAUAAUGGCGAAUGGGACCCA [C58A G68A], with 0.95; and GGCCGGCAUGGUCCCAGCCUCCUCGCUGGCGCCGGCUGGGCAACAUUCCGAGGGGACGGUCCCCUCGGUAAUGACGAAUGGGACCCA [C58G G74A], with 0.499; and GGCCGGCAUGGUCCCAGCCUCCUCGCUGGCGCCGGCUGGGCAACAUUCCGAGGGGACUGUCCCCUCUGUAAUGGCGAAUGGGACCCA [C58U G67U], with 1.12.

Turning to GGCCGGCAUGGUCCCAGCCUCCUCGCUGGCGCCGGCUGGGCAACAUUCCGAGGGGACGGGCCCCUCGGUAAUGGCGAAUGGGACCCA [C58G U60G], the self-cleavage was 0.532. For the variant GGCCGGCAUGGUCCCAGCCUCCUCGCUGGCGCCGGCUGGGCAACAUUCCGAGGGGACUGUCCCCUCGGUAAUGGGGAAUGGGACCCA [C58U C75G], the self-cleavage is 0.116. Then GGCCGGCAUGGUCCCAGCCUCCUCGCUGGCGCCGGCUGGGCAACAUUCCGAGGGGACAGUCCUCUCGGUAAUGGCGAAUGGGACCCA [C58A C63U], with 1.02; and GGCCGGCAUGGUCCCAGCCUCCUCGCUGGCGCCGGCUGGGCAACAUUCCGAGGGGACAGUCCCCUCCGUAAUGGCGAAUGGGACCCA [C58A G67C], with 0.886; and GGCCGGCAUGGUCCCAGCCUCCUCGCUGGCGCCGGCUGGGCAACAUUCCGAGGGGACAGUCCCCUCUGUAAUGGCGAAUGGGACCCA [C58A G67U], with 0.946. As for GGCCGGCAUGGUCCCAGCCUCCUCGCUGGCGCCGGCUGGGCAACAUUCCGAGGGGACAGUCCCCUCGGUAAUGGCGAAUAGGACCCA [C58A G80A], the figure is 0.544. As for GGCCGGCAUGGUCCCAGCCUCCUCGCUGGCGCCGGCUGGGCAACAUUCCGAGGGGACGGUCCCCUCGGUAAUGGCGAAUGGGACCCC [C58G A87C], the self-cleavage came out at 0.919. With GGCCGGCAUGGUCCCAGCCUCCUCGCUGGCGCCGGCUGGGCAACAUUCCGAGGGGACGGUGCCCUCGGUAAUGGCGAAUGGGACCCA [C58G C61G], the self-cleavage came out at 0.88. Then GGCCGGCAUGGUCCCAGCCUCCUCGCUGGCGCCGGCUGGGCAACAUUCCGAGGGGACGGUUCCCUCGGUAAUGGCGAAUGGGACCCA [C58G C61U], with 0.851; and GGCCGGCAUGGUCCCAGCCUCCUCGCUGGCGCCGGCUGGGCAACAUUCCGAGGGGACGGUCCCCUCGGUAAUGGCGAAUGGGACCAA [C58G C86A], with 0.727. Then GGCCGGCAUGGUCCCAGCCUCCUCGCUGGCGCCGGCUGGGCAACAUUCCGAGGGGACUGUCCCCUCGGUAAUGGCGAAUGGGACACA [C58U C85A], with 1.13. As for GGCCGGCAUGGUCCCAGCCUCCUCGCUGGCGCCGGCUGGGCAACAUUCCGAGGGGACGGUCCCCUCGGUAAAGGCGAAUGGGACCCA [C58G U72A], the figure is 0.594. For the variant GGCCGGCAUGGUCCCAGCCUCCUCGCUGGCGCCGGCUGGGCAACAUUCCGAGGGGACAGUCCCCUCGGUAAUGGCGAAUGGGACCCG [C58A A87G], the self-cleavage worked out at 1.11. As for GGCCGGCAUGGUCCCAGCCUCCUCGCUGGCGCCGGCUGGGCAACAUUCCGAGGGGACAGUCCCCUCGGUAAUGGCGAAUGGGACCCU [C58A A87U], the figure is 1; as for GGCCGGCAUGGUCCCAGCCUCCUCGCUGGCGCCGGCUGGGCAACAUUCCGAGGGGACAGUCCCCUCGGUAAUGGCGAAUGGGACCCC [C58A A87C], 1.09; as for GGCCGGCAUGGUCCCAGCCUCCUCGCUGGCGCCGGCUGGGCAACAUUCCGAGGGGACUGUCCCCUCGGUAAUGGCGAAUGGGACCCU [C58U A87U], 0.915. On to GGCCGGCAUGGUCCCAGCCUCCUCGCUGGCGCCGGCUGGGCAACAUUCCGAGGGGACUGUCCCCUCGGUAAUGGCGAAUGGGACCCC [C58U A87C], for which the self-cleavage was 0.905. As for GGCCGGCAUGGUCCCAGCCUCCUCGCUGGCGCCGGCUGGGCAACAUUCCGAGGGGACUGUCCCCUCGGUAAUUGCGAAUGGGACCCA [C58U G73U], the figure is 0.343; as for GGCCGGCAUGGUCCCAGCCUCCUCGCUGGCGCCGGCUGGGCAACAUUCCGAGGGGACUGUCCCCUCGGUAAUCGCGAAUGGGACCCA [C58U G73C], 0.608; as for GGCCGGCAUGGUCCCAGCCUCCUCGCUGGCGCCGGCUGGGCAACAUUCCGAGGGGACAGUCCCCUCGGUAAUGGCGAAUGGGACCUA [C58A C86U], 1.1.

In the case of GGCCGGCAUGGUCCCAGCCUCCUCGCUGGCGCCGGCUGGGCAACAUUCCGAGGGGACUGUGCCCUCGGUAAUGGCGAAUGGGACCCA [C58U C61G], the self-cleavage is 0.967.
